In PMC4356368, “Four crystal structures of human LLT1, a ligand of human NKR-P1, in varied glycosylation and oligomerization states” (Acta Crystallographica Section D: Biological Crystallography, 2015):

Tests used:
[1] = target: LLT1 produced in the HEK293T cell line with wild-type complex N-glycosylation (human); assay: AUC; sedimentation velocity, 50 000 rev/min, 20°C, absorbance 280 nm, 10 mM HEPES pH 7.5, 150 mM NaCl, 10 mM NaN3; several concentrations (HEK293T protein at 0.2 mg/ml and tenfold diluted; GnTI- protein at five concentrations); continuous size-distribution and monomer-dimer self-association models; dimer to monomers
[2] = target: the molecule itself; assay: crystal structure; LLT1_D1 and LLT1_D2: deglycosylated protein, 30%(w/v) PEG 6000, 0.1 M HEPES pH 7.0, 294 K; one dimer in the asymmetric unit, P212121
[3] = target: the molecule itself; assay: dynamic light scattering; 1 mg/ml in 10 mM HEPES, 150 mM NaCl, 10 mM NaN3 pH 7.5; 291, 298 and 303 K
[4] = target: the molecule itself; assay: AUC; sedimentation velocity, 50 000 rev/min, 20°C, absorbance 280 nm, 10 mM HEPES pH 7.5, 150 mM NaCl, 10 mM NaN3; several concentrations (HEK293T protein at 0.2 mg/ml and tenfold diluted; GnTI- protein at five concentrations); continuous size-distribution and monomer-dimer self-association models; dimer to monomers
[5] = target: the molecule itself; assay: crystal structure; LLT1_glyco: GlcNAc2Man5-glycosylated protein, 40%(v/v) PEG 300, 0.1 M citrate-phosphate pH 4.2, 288 K; P6322, hexamer of three dimers by crystal symmetry

Molecule: LLT1 produced in the HEK293T cell line with wild-type complex N-glycosylation (domain or fragment)
- stoichiometry N [1]: 2

B1: Human LLT1 C-type lectin-like extracellular domain (Gln72-Val191, His176Cys), deglycosylated after the first N-acetylglucosamine unit (domain or fragment)
chain: ITGQAACPESWIGFQRKCFYFSDDTKNWTSSQRFCDSQDADLAQVESFQELNFLLRYKGPSDHWIGLSREQGQPWKWINGTEWTRQFPILGAGECAYLNDKGASSARCYTERKWICSKSDIHV
modifications: single N-linked GlcNAc left at Asn95 and Asn147 after Endo F1
notes: remnant of the secretion leader at the beginning of the chain; LLT1 (lectin-like transcript 1), human, UniProt Q9UHP7 isoform 1, CTL extracellular domain Gln72-Val191 with His176 to Cys176; Same polypeptide as m1; it differs only in the glycans; L-arginine-HCl (0.4 M) was added after deglycosylation; also called LLT1_mono; LLT1_D1
- stoichiometry N [2]: 2

B2: Human LLT1 C-type lectin-like extracellular domain (Gln72-Val191, His176Cys) with homogeneous GlcNAc2Man5 N-glycosylation (domain or fragment)
chain: ITGQAACPESWIGFQRKCFYFSDDTKNWTSSQRFCDSQDADLAQVESFQELNFLLRYKGPSDHWIGLSREQGQPWKWINGTEWTRQFPILGAGECAYLNDKGASSARCYTERKWICSKSDIHV
modifications: N-linked GlcNAc2Man5 glycans at Asn95 and Asn147
notes: remnant of the secretion leader at the beginning of the chain; LLT1 (lectin-like transcript 1), human, UniProt Q9UHP7 isoform 1, CTL extracellular domain Gln72-Val191 with His176 to Cys176; the construct is described in Bláha et al. (2015); also called LLT1_glyco; glycosylated LLT1; source: HEK293S GnTI- cells, transiently transfected, secreted, purified (Talon IMAC, Superdex 200 SEC)
- stoichiometry N [3]: 2
- Kd [4]: ~20 µM
- stoichiometry N [5]: 6
